In the domain aggregation screens of Martell et al. (2025):

Assay: soluble fraction after stress (log2 fold change); higher = more stays soluble; pooled small domains, quantitative proteomics
Details: stress: pH 4
In short: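 After pH 4 stress, pooled custom libraries of small protein domains were quantified with high-throughput quantitative proteomics. Aggregation propensity is taken from the fold change in each domain's soluble amount following the acid stress. The scale is log2, where higher values mean more stayed soluble.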

Sequence | soluble fraction (log2)
HMADYSGYLGKKGKVIAPLRPAGTALIDGERVDVVSFGDYIDKDSEIEVVKIEGSKLLVKKY | 0.128
HMKKISAKQQQILDYISSYSLEHGYPPSVREIGAEMGLRSPSTVHAHLKKLQEAGYLEPNEHKSRALTP | -0.0896
HMEIDDPWLILGINAGSSIEIAQKAWKDLASQNHPDKLIANGVPKELLGMANEKLAIINGAYDKILKAHKI | -0.792
HMSHDTLVYRLAQMLVKLNQGEKLDPQQLAEEFGVNLRTIQRDLNVRFAYLQLEKTDGRYHLDPTFL | -0.241
HMSSAYLTVRGIDIDVIYKDIKNLHIAVYPPFGRVRVAAPSHLDDDQVRLAVIQRLTWIKRQRERLRST | -0.336
HMRKEEFIRELVLELKQNVSEQVILEQKRFYEEYILTEVRGGKTEEEVIASLSEPRLLAKSIIDAAEAGGD | -1.5
HMEQVVFNGTGRRKSSIARVRIMSGKGNITVNGKALDEYFGEETLKVIVRQPLTVTDTLDKYDVIATVK | -0.0364
HMEDPLGDLIGRIAAATGRPVQDIVAEVHRVVTDHFDGNLRVEAAAVILARKYGVAFEDKLSALQRSV | -0.559
HMKKATYDVMVREALVSFKKKGATLQSIKKKIKADYAIEANATAVKSAIQKGMEAGSIRKSYDLYFFMD | 0.15
HMEKPYTPPANLNEIQSYEELSKAVQYYNKVKDAATTDADRLKAQQSIDTLEDMRKAWDAASST | -0.312
HMMNNKEIGTRIAVLRKGMGDSQAKLAERLDVSPQAVSKWETGQSLPDIGNLLKLSWLFRTSINHILEGS | -0.384
HMSLANTSVKEMLNDLVKNEEPSKPLSDEALVKIFKEKGVKIARRTVAKYRAELNILPSHLRRT | -0.116
HMAEEFESMTEARRLELARLVDSRGFVRVTDAAEELGVSDVTIRGDLSELERRGLLTRVHGGAMPVT | -0.366
HMSMEIQEIIRQLREKNDWSQEDMAERVGLSKNGYAKIERGETNLNLERLEQIANLFDLSVIDLIEMS | -1.03
HMTGKVKWYDADKGFGFVTEDGGRDVYVRKSALPQGVETLKAGQRLEFGIAEGRRGPQALSVR | -0.0382
HMDGPGDRLLIAIQENSMTQKKFAQLIGMSPNGLNSIIKGKKRLSRVLAIATERLTGVRADWILQNEQPK | -0.244
HMTALPPNVSIDSDERRLLEAIGFDPVDMDVLARDGQFSSVDLFRLLVSLELKGLVENQHGAYQRL | -1.67
HMEHAETDTRERILVVAERLFRQLGYQKTTVADIAKELRMSPANVYRFFDSKKSIHEGVARTL | 0.275
HMTQSGLTQWEFNMLRQALIEMLGEKPGSVFELARLLPLEQEKNVQALRFLLDHDDQFHLKDEYISFVKRT | -1.82

Sequence | soluble fraction (log2)
HMGSREVPFSDFISKVESGSVLEVVLRGRQVEGLTDANERFQTQIPNYPALFEILERNQVRTRVEPT | -0.814
HMDDFVEIDGKKYEIDMSFDNILRLFDLLKDKSLNDVTKIETGLIMLIDDSLDDYDTEEKADIFVQIF | 0.22
HMDETYRRQLEDLAREHGAEYLHGILREVDPASAEAIHANNIKRVIRALEFYHLSGKKISEHNETERQ | -0.00358
HMSVNEKVRLFRELNQWSQEEMAERMNMSVAGYAKIERGETNISLHKLKQIASVLQIDLLDLVS | -0.867
HMISFTDLEHIEKMIENVLYTKTPLNLPPTDAKIRKIEHQIARRYGLNSESFGDEPRRFVVVYPNEERE | 0.0997
HMEAEVIKTASDMADRNGLHNVSLKAIAENLGIRTPSLYNHIGSLDELLREIAHSGMRTMNE | -0.247
HMTYQTVRYGSTGSAVRQLQSALNQKGYQLSEDGIFGAKTRAAVRDYQKKNGLLLDGIAGSQTWNHLMS | ≥ 0.43
HMSGVIVPDIYNKTLAEAVASLEGEGFSTEKKEGYSDTVPKGNVMSQKPEAGTSAERGSTVTITISQGPQ | -0.0347
HMGPTLTDEEEVVLNLLEKNHPVLLSELKENAGLSNKKWDKAIKGLSAHKLAKVTKTDDGLFVHLS | -0.167
HMAKRTVPSVAEAIDNFRRQHRRMPSYAEMLPLLGVRSKSVVHFWINKLLENGLLEKDDKGYLTPGS | -0.241
HMSGKMTVPNVVGKTETEAKSALSAKGFTNVRTETVDSTEAAGTVVKQSLDADSVQDPKTEIVLSVSNG | ≥ 0.43
HMQELVPGKVFEGTVTEMKNGQVTLGLSDGKTISARMEQGVSLAKGQPMLFEVKSNTGEQIAIRPVVL | 0.105
HMTALSAREHEVLQLITRGYTADEIAAMLQISRHTALTYVRRIYSKLKVNSKAEAIFEVRQR | -0.215
HMNPETIHNDYKAFIKFAFSGLSYYSKVWNQNREMITPGLLETLWQKYRHLSIGEIETILEKIIKEG | -1.24
HMRTYYEILGVSKNASLHEIQKAYRELALKYHPKNNSDPTAEEKFTQINEAYTHLSDAARRRSYDDL | 0.362
HMEPMNMYSSIKKVIGVVSGKGGVGKSLVTASLARMMRAKGYHVGIMDADITGPSIPKMYGLHEMA | 0.0444
HMEIIMIVITKPSITDERIAEIVAVIERNGGVQAHVSKGTDRTVIGIIGKAEPTLAEHLRQMKGVENVIKI | -0.327
HMKEIKAPNKINAHLIEEWRSQHPTELFPEEKVDLIYYKGEEYYFVIEEKNELGEIEEWYFAYDGGIDYV | -0.373
HMQAPHLALSPREFQVLQGLLAGDALDIIAERLHLSAKTVSNHQTLIRQKLGVGNAVELLRYAQLHRL | -0.661
